How the values were obtained:
[1] = target: T1, human insulin-like growth factor-I (human, UniProt P05019 49-118); test: SPR (Biacore 2000), hIGF-I amine-coupled on CM-5, antibody as analyte, 25 C
T1 construct: mature; In the ELISAs it was coated as a conjugate with methylated BSA; in Biacore it was amine-coupled to a CM-5 chip; also called hIGF-I; IGF-I
Method: (§1) For diluting samples and as reaction buffers in measurement, HBS-EP (10 mM HEPES, 150 mM NaCl, 3 mM EDTA, 0.005% Tween 20 pH 7.4) (manufactured by Biacore) was used.
(§2) Using an amine coupling kit (manufactured by Biacore), recombinant hIGF-I (manufactured by Fujisawa Pharmaceutical Co., Ltd.) and hIGF-II (manufactured by R & D) were immobilized at 18.5 pg/mm² or 26.7 pg/mm², respectively, on sensor tip CM-5 (manufactured by Biacore). After various antibodies which were diluted 5 steps in 2-fold serial dilutions as analytes added at a flow of 5 μl/minute for 4 minutes to observe a binding reaction, the dissociation reaction was subsequently observed over 5 minutes. After the dissociation reaction, 5 μl of 30 mM hydrochloric acid was added once, to regenerate the sensor chip surface. The reaction was done at 25° C. Based on the reaction curves at various concentrations, the binding constant Kass and dissociation constant Kdiss were calculated, to calculate the binding constants KA (M⁻¹) of these various antibodies.

[2] = target: T2, human insulin-like growth factor-II (human, UniProt P01344 25-91); test: SPR (Biacore 2000), hIGF-II amine-coupled on CM-5, antibody as analyte, 25 C
T2 construct: also called hIGF-II; IGF-II
Method: as §1, §2

[3] = target: T2, human insulin-like growth factor-II; test: SPR (Biacore 2000)
[4] = target: T1, human insulin-like growth factor-I; test: SPR (Biacore 2000)
[5] = target: T1, human insulin-like growth factor-I; test: binding ELISA on coated mBSA-hIGF-I
Method: A conjugate of hIGF-I (manufactured by Fujisawa Co., Ltd.) with methylated BSA (manufactured by SIGMA) was prepared and used as an antigen to be immobilized on an ELISA plate. That is, methylated BSA dissolved in distilled water was mixed with hIGF to a ratio of methylated BSA:hIGF-I=1:8 (weight ratio) at 4° C. The resulting mixture was agitated with a vortex mixer for 10 seconds, to obtain a conjugate of hIGF-I with methylated BSA (hereinafter referred to as mBSA-hIGF-I).
The above mBSA-hIGF-I was dispensed at 50 μl/well on a 96-well ELISA plate (manufactured by Greiner) to give a hIGF-I concentration of 20 ng/ml and then left overnight at 4° C. for immobilization. After washing with PBS, PBS containing 1% BSA (hereinafter referred to as BSA-PBS) was dispensed in 100 μl/well to react at room temperature for 1 hour to carry out blocking of the remaining active groups. Discarding BSA-PBS, the culture supernatant of each of the various transformants or each of various purified hIGF CDR-grafted antibodies was dispensed at 50 μl/well to react at room temperature for 2 hours. After the reaction, each well was washed with PBS containing 0.05% Tween 20 (hereinafter referred to as Tween-PBS). Then, HRP-labeled anti-human IgG antibody (manufactured by American Qualex) in 2000-fold dilution was dispensed at 50 μl/well as a secondary antibody to react at room temperature for 1 hour.

T2 sequence (P01344 25-91 limits assumed): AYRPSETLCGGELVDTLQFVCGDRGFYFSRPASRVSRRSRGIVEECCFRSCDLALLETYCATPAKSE
T1 sequence (P05019 49-118): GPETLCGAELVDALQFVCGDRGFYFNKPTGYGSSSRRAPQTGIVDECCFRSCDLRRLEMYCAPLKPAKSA

Ka [1]	Ka [2]	KA relative to CamHV0/LV0 (fold) [3]	KA relative to CamHV0/LV0 (fold) [4]	binding activity relative to KM3002 (fold) [5]	KA relative to KM3002 (fold) [3]	KA relative to KM3002 (fold) [4]	binding activity relative to CamHV0/LV0 (fold) [5]	Binder
2.94e+09 M⁻¹	2.24e+09 M⁻¹	–	–	–	–	–	–	anti-hIGF human chimeric antibody KM3002 (antibody, human IgG1, V domains shown, V regions of KM1468 on human IgG1, kappa constant regions (vector pKANTEX93); also called anti-hIGF chimeric antibody KM3002) VH: EVHLVESGGGLVQPGRSLKLSCAASGFTFSNYYMTWVRQAPTKGLEWVAYISSGGGSTYYRDSVKGRFTISRDNAKSTLYLQMDSLRSEDTATYYCTTEDYGYWFAYWGQGTLVTVSS VL: EIVLTQSPTTMAASPGEKVTITCRASSSVSYMHWFQQKSGTSPKPWIYGTSKLASGVPDRFSGSGSGTSYSLTISSMEAEDAATYYCLQRSSYPPTFGAGTKLELK
2.32e+09 M⁻¹	3.96e+09 M⁻¹	~10 fold	~14 fold	–	–	–	–	anti-hIGF CDR-grafted antibody QGAR/NYPLL3A11 (antibody, V domains shown, Human IgG1, kappa (pKANTEX93)) VH: EVQLVESGGGVVQPGRSLRLSCAASGFTFSNYYMTWVRQAPTKGLEWVAYISSGGGSTYYRDSVKGRFTISRDNSKNTLYLQMNSLRAEDTAVYYCTTEDYGYWFAYWGQGTLVTVSS VL: DIVMTQSPDSLAVSLGERATITCRASSSVSYMHWFQQKPGQSPKPWIYGTSKLASGVPDRFSGSGSGTSYSLTISSLQAEDAATYYCLQRSSYPPTFGQGTKVEIK
1.7e+08 M⁻¹	3.9e+08 M⁻¹	–	–	~0.02 fold	~0.167 fold	~0.059 fold	–	anti-hIGF CDR-grafted antibody CamHV0/LV0 (antibody, human IgG1, V domains shown, Human IgG1, kappa (pKANTEX93); also called CmaHV0/LV0) VH: QVQLVESGGGVVQPGRSLRLSCAASGFTFSNYYMTWVRQAPGKGLEWVAYISSGGGSTYYRDSVKGRFTISRDNSKNTLYLQMNSLRAEDTAVYYCAREDYGYWFAYWGQGTLVTVSS VL: DIVMTQSPDSLAVSLGERATINCRASSSVSYMHWYQQKPGQPPKLLIYGTSKLASGVPDRFSGSGSGTDFTLTISSLQAEDVAVYYCLQRSSYPPTFGQGTKVEIK
2.31e+09 M⁻¹	4.02e+09 M⁻¹	–	–	–	–	–	–	anti-hIGF CDR-grafted antibody QGAR/PLDFT (antibody, human IgG1, V domains shown, Human IgG1, kappa (pKANTEX93)) VH: EVQLVESGGGVVQPGRSLRLSCAASGFTFSNYYMTWVRQAPTKGLEWVAYISSGGGSTYYRDSVKGRFTISRDNSKNTLYLQMNSLRAEDTAVYYCTTEDYGYWFAYWGQGTLVTVSS VL: DIVMTQSPDSLAVSLGERATINCRASSSVSYMHWYQQKPGQSPKPLIYGTSKLASGVPDRFSGSGSGTSYSLTISSLQAEDVAVYYCLQRSSYPPTFGQGTKVEIK
7.8e+08 M⁻¹	1.75e+09 M⁻¹	~5 fold	~5 fold	~0.5 fold	–	–	~25 fold	anti-hIGF CDR-grafted antibody QGAR/LV0 (antibody, human IgG1, V domains shown, Human IgG1, kappa (pKANTEX93)) VH: EVQLVESGGGVVQPGRSLRLSCAASGFTFSNYYMTWVRQAPTKGLEWVAYISSGGGSTYYRDSVKGRFTISRDNSKNTLYLQMNSLRAEDTAVYYCTTEDYGYWFAYWGQGTLVTVSS VL: DIVMTQSPDSLAVSLGERATINCRASSSVSYMHWYQQKPGQPPKLLIYGTSKLASGVPDRFSGSGSGTDFTLTISSLQAEDVAVYYCLQRSSYPPTFGQGTKVEIK
1.32e+09 M⁻¹	2.1e+09 M⁻¹	~5 fold	~8 fold	~0.5 fold	–	–	~25 fold	anti-hIGF CDR-grafted antibody CamHV0/NYPLL3A11 (antibody, human IgG1, V domains shown) VH: QVQLVESGGGVVQPGRSLRLSCAASGFTFSNYYMTWVRQAPGKGLEWVAYISSGGGSTYYRDSVKGRFTISRDNSKNTLYLQMNSLRAEDTAVYYCAREDYGYWFAYWGQGTLVTVSS VL: DIVMTQSPDSLAVSLGERATITCRASSSVSYMHWFQQKPGQSPKPWIYGTSKLASGVPDRFSGSGSGTSYSLTISSLQAEDAATYYCLQRSSYPPTFGQGTKVEIK
1.7e+08 M⁻¹	4.5e+08 M⁻¹	–	–	–	–	–	–	anti-hIGF CDR-grafted antibody QAR/LV0 (antibody, human IgG1, V domains shown, Human IgG1, kappa (pKANTEX93); also called QAV/LV0) VH: EVQLVESGGGVVQPGRSLRLSCAASGFTFSNYYMTWVRQAPGKGLEWVAYISSGGGSTYYRDSVKGRFTISRDNSKNTLYLQMNSLRAEDTAVYYCTTEDYGYWFAYWGQGTLVTVSS VL: DIVMTQSPDSLAVSLGERATINCRASSSVSYMHWYQQKPGQPPKLLIYGTSKLASGVPDRFSGSGSGTDFTLTISSLQAEDVAVYYCLQRSSYPPTFGQGTKVEIK
2.78e+09 M⁻¹	3.52e+09 M⁻¹	–	–	–	–	–	–	anti-hIGF CDR-grafted antibody QGAR/PLLDFT (antibody, human IgG1, V domains shown, Human IgG1, kappa (pKANTEX93)) VH: EVQLVESGGGVVQPGRSLRLSCAASGFTFSNYYMTWVRQAPTKGLEWVAYISSGGGSTYYRDSVKGRFTISRDNSKNTLYLQMNSLRAEDTAVYYCTTEDYGYWFAYWGQGTLVTVSS VL: DIVMTQSPDSLAVSLGERATINCRASSSVSYMHWYQQKPGQSPKPWIYGTSKLASGVPDRFSGSGSGTSYSLTISSLQAEDVAVYYCLQRSSYPPTFGQGTKVEIK

Reference: patent US20060240015A1 (Kyowa Kirin, published 2006)
